# Measurements published in PMC12137362, “OsAPSE modulates non-covalent interactions between arabinogalactan protein O-glycans and pectin in rice cell walls” (Frontiers in Plant Science, 2025).
# Test system: O=[N+]([O-])c1ccc(O[C@H]2O[C@H](CO)[C@H](O)[C@H](O)[C@H]2O)cc1
# Assay: cells, lysate or membranes
# Conditions: Tris-HCl pH 8, 25 °C, unpurified cell-free expression reaction, final substrate 0.5-50 mM
substance,measurement,value
GH27_OsAPSE (GH27 domain of OsAPSE) (Oryza sativa Japonica Group),Km,670 µM
